Molecular target: the molecule itself
Assay: single molecule analysis

B1: EGFP-S1C 4KA (domain or fragment, UniProt Q13586 342-465, looked up)
chain: YAPEALQKWLQLTHEVEVQYYNIKKQNAEKQLLVAKEGAEAIAAARNTLFGTFHVAHSSSLDDVDHKILTAKQALSEVTAALRERLHRWQQIEILCGFQIVNNPGIHSLVAALNIDPSWMGSTR
stoichiometry N: 2
